Test results reported in the DeepSol protein solubility set.

test: soluble on expression in E. coli; label from the status in PepcDB or PDB records

Sequence	soluble on expression in E. coli
MTNMDNYCVIMGGGIGSRFWPFSRKTLPKQFLDFFGTGRSLLQQTFDRFQKVIPTENILIVTNAMYADLVKEQLPELDEKQILLEPARRNTAPCIAWAAYHIRALNPNANIVVAPSDHLILKEEEFRAAIIKGLEFVSHSEKLLTLGIKPNRPETGYGYIQIDEPTGDGFYKVKTFTEKPELELAKVFVESGEFYWNSGLFMWNVNTIIKAAEILLPELVSKLAPGKNIYATDKEKAFIEENFPACPNVSIDFGIMEKADNVYVSLGDFGWSDLGTWGSLYDLSERDREGNVTLKSHSLIYNGKDNMIVLPKGKLAVIDGLEGYLIAESDNVLLICRKDEEHSIRKYVNDAQMQLGDDFI	not soluble
MTNPVDVNLINGIALAFEGDAVYSYYVRRHLIFQGKTKPSQLHRLATRYVSAKAQANLIQAMLEAQLLTEKEEDIYKRGRNTNSHTKAKNADIITYRMSTGFEAIMGYLDMMGQKERLEELIRWCIEYVEKQQLISSLEHHHHHH	soluble
MTNSEPRRMTCDSEVVWKKLQDGLDVAYRRENMAPKDYMTLYTSVYDYCTSITLSTSRRDGEDGRAESSTPARTAGADFVGHEMYQRVEEYVKAYVIAVCEKGAELSGEDLLKYYTTEWENFRISSKVMDGIFAYLNRHWIRRELDEGHENIYMVYTLALVVWKRNLFNDLKDKVIDAMLELIRSERTGSMINSRYISGVVECLVELGVDDSETDAKKDAETKKLAVYKEFFEVKFLEATRGFYTQEAANFLSNGGNVTDYMIKVETRLNQEDDRCQLYLNSSTKTPLATCCESVLISNQLDFLQRHFGGLLVDKRDDDLSRMFKLCDRVPNGLDELRKSLENHIAKEGHQALERVAMEAATDAKLYVKTLLEVHERYQSLVNRSFKNEPGFMQSLDKAATSFINNNAVTKRAPPQAQLTKSAELLARYCDQLLRKSSKMPDEAELEELQTKIMVVFKYIDDKDVFSKFYTKMFSKRLISELSASDEAEANFITKLKSMCGYEYTARLSKMVNDTQVSKDLTADFKEKKADMLGQKSVEFNVLVLSSGSWPTFPTTPITLPQQLSKTIEIFGQFYNEKFNGRRLTWVYSQSRGEITSTAFPKKYVFTATTAQMCTMLLFNEQDSYTVEQIAAATKMDEKSAPAIVGSLIKNLVLKADTELQKEDEVPMTATVSLNKAYMNKKVRVDLSKFTMKQDAVRDTENVQKNVEEDRKSVISACIVRIMKTRKRVQHQQLMTEVITQLSGRFKPKVEMIKRCIGSLIEKEYMLRTEGQKDLYEYLA	not soluble
MTNTAKILNFCRGNFAKQERNVADLDDGYARLSNMLLEAYSGADLTKRQFKVLLAILRKTYGWNKPMDRITDSQLSEITKLPVKRCNEAKLELVRMNIIKQQGGMFGPNKNISEWCIPQNEGKSPKTRDKTSLKLGDCYPSKQGDTKDTITKEKRKDYSSENSGESSDQPENDLSVVKPDAAIQSGSKWGTAEDLTAAEWMFDMVKTIAPSARKPNFAGWANDIRLMRERDGRNHRDMCVLFRWACQDNFWSGNVLSPAKLRDKWTQLEINRNKQQAGVTACKPKLDLTNTDWIYGVDL	not soluble
MTNWLIAYQGEPGAYSEIAALRFGEPLPCESFDDVFSAVTEQKADYAVIPIENSLGGSIHQNYDLLLRRPVVILAETFVKVEHCLLGLPGASVETATKAMSHPQALVQCHNFFATHPQIRAEAAYDTAGSAKMVAESRDKSALAIASKRAGELYGLDILKENLADEEWNITRFFCIAHENN	not soluble
MTPEQAHARARATGPLPLGAGEPAPRGMVRLAHGDGTGLALQVWPDGATPSLLEEYQVAPVNVERSGETRRVLAAALKCCWTDLGADPWPGAPAPVEDVLSAYRALIGRGDDLMRNWAIGALRRLHDSAWLEVEDGVVRLGPRCACWPSESHAQLRELMRRLPTGDEGLTGLEVLPADGRAPAETAASVAPPEDVDEDLLGPFDERRRAEIVAAFIAVEHAAEPVHEARLPALRDPVLRRALAEMLQRRGRVLIQDREAWTSGYAPEVTAVTGTTVGEAERAVLVLVLIHSVAIPRADGLLPADSWLSPFPAQVEELRRHTRLPIGELEAALRTLRHAGLVTQVKAGEEAGGYTPGPQFHRLTPQARRGLQEELILAAGPHTPLAAAVRANRR	not soluble
MTPPIISPESFEALRRMRAAEPTMVAERFKQRRKRELLGEDGKLFIVAADHPARGALAVGDNETAMANRYELLERMAIALSRPGVDGVLGTPDIIDDLAALGLLDDKIVVGSMNRGGLRGASFEMDDRYTGYNVSSMVDRGVDFAKTLVRINLSDAGTAPTLEATAHAVNEAAAAQLPIMLEPFMSNWVNGKVVNDLSTDAVIQSVAIAAGLGNDSSYTWMKLPVVEEMERVMESTTMPTLLLGGEGGNDPDATFASWEHALTLPGVRGLTVGRTLLYPQDGDVAAAVDTAARLVHTDIQQFTSQSILEHHHHHH	soluble
MTPSVAQNTKYVNLFIGTSGDNGQVAPGAAAPFGMVCVCPDNDPRSHAGYDYAVTKVSGISVNRLSGVGCSGGGGNLRIRPVAPSQELHIKKSREKATPGYYSTAFTNGIKTELTATNAMAVERYKFPRSLSAALWIDFASTFEDVATCHYKRISETCIEGYVQAKNVCGHGCYKLYFSLNTSQPLEHHHHHH	not soluble
MTPTEQAAVRPPLPVKMVIAGGFGVGKTTAVGSISEIVPLTTEAAITEVAAGVDDLTHTPRKTTTTVAMDFGCITIDPTLKLYLFGTPGQDRFGFMWDDLVEGAVGGLVIVDTRRLDDCYAAVDYFEHKQIPFAVALNAFDGRIEHDLDEVRWALDVAERVPVVVFDARERGSVRDALLVVLELALARTGALEHHHHHH	not soluble
MTQANLSETLFKPRFKHPETSTLVRRFNHGAQPPVQSALDGKTIPHWYRMINRLMWIWRGIDPREILDVQARIVMSDAERTDDDLYDTVIGYRGGNWIYEWATQAMVWQQKACAEDDPQLSGRHWLHAATLYNIAAYPHLKGDDLAEQAQALSNRAYEEAAQRLPGTMRQMEFTVPGGAPITGFLHMPKGDGPFPTVLMCGGLDAMQTDYYSLYERYFAPRGIAMLTIDMPSVGFSSKWKLTQDSSLLHQHVLKALPNVPWVDHTRVAAFGFRFGANVAVRLAYLESPRLKAVACLGPVVHTLLSDFKCQQQVPEMYLDVLASRLGMHDASDEALRVELNRYSLKVQGLLGRRCPTPMLSGYWKNDPFSPEEDSRLITSSSADGKLLEIPFNPVYRNFDKGLQEITDWIEKRLC	soluble
MTQFDKQYNSIIKDIINNGISDEEFDVRTKWDSDGTPAHTLSVISKQMRFDNSEVPILTTKKVAWKTAIKELLWIWQLKSNDVNDLNMMGVHIWDQWKQEDGTIGHAYGFQLGKKNRSLNGEKVDQVDYLLHQLKNNPSSRRHITMLWNPDELDAMALTPCVYETQWYVKHGKLHLEVRARSNDMALGNPFNVFQYNVLQRMIAQVTGYELGEYIFNIGDCHVYTRHIDNLKIQMEREQFEAPELWINPEVKDFYDFTIDDFKLINYKHGDKLLFEVAV	soluble
MTQFNPVDHPHRRYNPLTGQWILVSPHRAKRPWQGAQETPAKQVLPAHDPDCFLCAGNVRVTGDKNPDYTGTYVFTNDFAALMSDTPDAPESHDPLMRCQSARGTSRVICFSPDHSKTLPELSVAALTEIVKTWQEQTAELGKTYPWVQVFENKGAAMGCSNPHPHGQIWANSFLPNEAEREDRLQKEYFAEQKSPMLVDYVQRELADGSRTVVETEHWLAVVPYWAAWPFETLLLPKAHVLRITDLTDAQRSDLALALKKLTSRYDNLFQCSFPYSMGWHGAPFNGEENQHWQLHAHFYPPLLRSATVRKFMVGYEMLAETQRDLTAEQAAERLRAVSDIHFRESGV	soluble
MTQHTRNFSFKVLTINTHKGFTAFNKRFILPELRDAVRTVGADIVCLQEVMGAHEVHPLHIENWPDTTHYEFLADTMWSDFAYGRNAVYPEGHHGNAVLSRYPIEHYENRDVSVGGSEKRGVLYCRITPPMLNRPIHVMCVHLGLRESHRQAQLTMLAGWVNALPESEPVLVAGDFNDWRQKAGPPLNAAGLEEIFTRAHGRPARTFPVSMPLLRLDRIYVKNANASSPTALPLRNWRHLSDHAPLSAEIHL	not soluble
MTQIARIRDNTSERRLQAERLIGARALQEAQALRFSVFSEEFNARLKGAEQGLDIDDYDIHCSHIGVRDLNTGRLVATTRLLDHKAANTLGSFYSEEEFSLHGLAHLQGPILELGRTCVDPAYRNGGTIAVLWSELAEVLNEGGYSYLMGCASIPMQDGGIQAHAIMQRLRERYLCNEHLRAEPKNPLPTLDIPSNVICEMPPLLKAYMRLGARICGEPCWDEDFQVADVFILLKRDDLCPRYARHFKAAV	not soluble
